# Laboratory results as given in doi:10.1101/2025.09.18.677151, “Structure and substrate recognition by the Twin-arginine translocation (Tat) pathway core complex” (bioRxiv, 2025).
# T1: E. coli TatBC complex (E. coli, UniProt P69425 1-171; P69423 1-258)
# T1 construct: TatB, E. coli; amplified from E. coli genomic DNA (DSM 1116); TatC, E. coli; also called TatB3C3; (TatBC)3; source: E. coli MC4100 ΔtatABCD ΔtatE, pQE60 based vector, overexpressed; purified in GDN (His-tag resin, SEC); for the pull-down captured from GDN-solubilised membranes on His-tag resin and washed; copies: 3 + 3
# T1 sequence 1: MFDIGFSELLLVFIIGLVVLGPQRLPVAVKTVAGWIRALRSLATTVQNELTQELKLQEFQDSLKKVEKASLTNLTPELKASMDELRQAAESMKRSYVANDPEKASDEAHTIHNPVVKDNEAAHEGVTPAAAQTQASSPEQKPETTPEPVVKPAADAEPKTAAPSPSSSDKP
# T1 sequence 2: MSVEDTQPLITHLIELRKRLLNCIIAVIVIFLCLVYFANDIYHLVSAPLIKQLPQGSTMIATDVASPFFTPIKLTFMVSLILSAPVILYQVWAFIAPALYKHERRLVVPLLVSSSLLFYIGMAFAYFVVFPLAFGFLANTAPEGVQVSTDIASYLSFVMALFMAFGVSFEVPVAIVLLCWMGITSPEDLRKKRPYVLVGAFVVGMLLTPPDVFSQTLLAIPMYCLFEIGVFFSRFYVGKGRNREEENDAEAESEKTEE
# T2: E. coli TatC with a C-terminal strep tag, expressed from the tatABC plasmid (E. coli, UniProt P69423 1-258)
# T2 construct: TatC, E. coli; also called TatC_(strep); source: E. coli MC4100 ΔtatABCD ΔtatE, tatABC operon on a low copy number plasmid; in GDN-solubilised membranes, captured on Streptactin XT; not shown: strep tag, C-terminal, kept
# T2 sequence: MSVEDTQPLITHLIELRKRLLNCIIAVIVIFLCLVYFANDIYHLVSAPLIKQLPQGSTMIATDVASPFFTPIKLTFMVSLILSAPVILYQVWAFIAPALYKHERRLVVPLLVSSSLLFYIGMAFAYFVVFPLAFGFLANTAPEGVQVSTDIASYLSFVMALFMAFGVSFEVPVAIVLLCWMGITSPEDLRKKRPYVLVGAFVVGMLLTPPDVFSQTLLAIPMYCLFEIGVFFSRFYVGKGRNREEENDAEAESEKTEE
# B1: E. coli MdoD, full length with its Tat signal peptide (natural protein, UniProt P40120 1-551, looked up)
# chain: MDRRRFIKGSMAMAAVCGTSGIASLFSQAAFAADSDIADGQTQRFDFSILQSMAHDLAQTAWRGAPRPLPDTLATMTPQAYNSIQYDAEKSLWHNVENRQLDAQFFHMGMGFRRRVRMFSVDPATHLAREIHFRPELFKYNDAGVDTKQLEGQSDLGFAGFRVFKAPELARRDVVSFLGASYFRAVDDTYQYGLSARGLAIDTYTDSKEEFPDFTAFWFDTVKPGATTFTVYALLDSASITGAYKFTIHCEKSQVIMDVENHLYARKDIKQLGIAPMTSMFSCGTNERRMCDTIHPQIHDSDRLSMWRGNGEWICRPLNNPQKLQFNAYTDNNPKGFGLLQLDRDFSHYQDIMGWYNKRPSLWVEPRNKWGKGTIGLMEIPTTGETLDNIVCFWQPEKAVKAGDEFAFQYRLYWSAQPPVHCPLARVMATRTGMGGFSEGWAPGEHYPEKWARRFAVDFVGGDLKAAAPKGIEPVITLSSGEAKQIEILYIEPIDGYRIQFDWYPTSDSTDPVDMRMYLRCQGDAISETWLYQYFPPAPDKRQYVDDRVMS
# notes: MdoD (OpgD), E. coli, precursor with the 32 residue Tat signal peptide; amplified from E. coli genomic DNA (DSM 1116); also called OpgD; source: E. coli BL21 (DE3) ΔtatABCD ΔtatE, pET28a modified, purified (His-tag resin), His6-SUMO removed with Ulp1; not shown: His6-SUMO, N-terminal, cleaved
# B2: E. coli TatB expressed from the tatABC plasmid (natural protein)
# chain: MFDIGFSELLLVFIIGLVVLGPQRLPVAVKTVAGWIRALRSLATTVQNELTQELKLQEFQDSLKKVEKASLTNLTPELKASMDELRQAAESMKRSYVANDPEKASDEAHTIHNPVVKDNEAAHEGVTPAAAQTQASSPEQKPETTPEPVVKPAADAEPKTAAPSPSSSDKP
# notes: TatB, E. coli; source: E. coli MC4100 ΔtatABCD ΔtatE, tatABC operon on a low copy number plasmid; in GDN-solubilised membranes, co-purified
# B3: E. coli TatB (subunit of the overexpressed TatBC complex) (natural protein)
# chain: MFDIGFSELLLVFIIGLVVLGPQRLPVAVKTVAGWIRALRSLATTVQNELTQELKLQEFQDSLKKVEKASLTNLTPELKASMDELRQAAESMKRSYVANDPEKASDEAHTIHNPVVKDNEAAHEGVTPAAAQTQASSPEQKPETTPEPVVKPAADAEPKTAAPSPSSSDKP
# notes: TatB, E. coli; amplified from E. coli genomic DNA (DSM 1116); residues 1-63 modelled in the cryo-EM map; source: E. coli MC4100 ΔtatABCD ΔtatE, pQE60 based vector, co-overexpressed with TatC; purified in GDN (His-tag resin, SEC)
# B4: N. salsuginis TatC (GFP-His removed) (natural protein, Nitratifractor salsuginis)
# chain: MFESMKPHLAELRQRLAISVLAVFVGFIIAFTFHNAILGWITKPLNNALIQVGKIVEKREMGTWKISGNEHNATLAPSKSPALLSDHAQSAEKLHRTLAEASQATQNPKLQKLLSQAASAAEELARNSRILRKALVKEENLTRQAVNQNLREKSFNGMITTHQVGGAFFVALKVSFFAGILMAMPVILWQLWLFIAPGLYDNEKKMVLPFVVGGSVMFLIGVLFAYYVVTPFGFQFLITFGSFLYTPLINIEDYVGFFTKILIGFGIAFELPVVAYFLALLGLITDKTLKDYFKYAIVIIFLLAAFLTPPDVLTQLLMAAPLILLYGLSILIVHYVNPYKPEEKEDDEEEEEDEFEKAEREFEALEKGSESHES
# notes: TatC, Nitratifractor salsuginis, with a large periplasmic insert; gene codon-optimised and synthesised; source: E. coli strain L56, pWALDO based pTatC-GFP-His, co-overexpressed with TatB-strep or TatA-strep; purified in GDN or digitonin (Ni-NTA, TEV, Streptactin XT, SEC)
# B5: M. xanthus TatC (GFP-His removed) (natural protein, Myxococcus xanthus)
# chain: MSLADHLTELRSRLMRCTIAVLILGTISLVFAKPIFGLLMQPVLDALPPENRSLIYTSGIEELNVLMKVGVYCGIFLTTPVILMQIWGFVSPGLYPEERRFAAPFVAFGSIAFLLGAAFCYFAVLPSMFTFLLNEEETLALEQRLDTARLRADDALRFLRLGEAEEAGRIAKETSTQLRAEGQGQAPAPEVAPAASVEMTGRLDGLGRLLDAASVGYGAQSRGVLRQAVEKRVEAVTAYEKKDFAAAAAAMDGSASLLAGIAPTRTEELAGLWRLEKELATAHAAHEAARWTRPMLSMHEQLSLVLLLILAFGIIFELPLVMALLGVVGVVKSSWLFRYQRHAFVVCLIAAAIITPTGDVVNLSLMAGPMLLCYELGVLLVWMVERRRARNSAETGITPAS
# notes: TatC, Myxococcus xanthus, with a large periplasmic insert; gene codon-optimised and synthesised; source: E. coli strain L56, pWALDO based pTatC-GFP-His, co-overexpressed with TatB-strep; purified in GDN (Ni-NTA, TEV, Streptactin XT, SEC)
# B6: M. xanthus TatC periplasmic domain (residues 127-303) (domain or fragment, Myxococcus xanthus, UniProt Q2PHA2 127-303, looked up)
# chain: SMFTFLLNEEETLALEQRLDTARLRADDALRFLRLGEAEEAGRIAKETSTQLRAEGQGQAPAPEVAPAASVEMTGRLDGLGRLLDAASVGYGAQSRGVLRQAVEKRVEAVTAYEKKDFAAAAAAMDGSASLLAGIAPTRTEELAGLWRLEKELATAHAAHEAARWTRPMLSMHEQLS
# modifications: selenomethionine-labelled
# notes: TatC, Myxococcus xanthus, periplasmic domain, residues 127-303; also called M. xanthus insert; M. xanthus periplasmic domain; source: E. coli B834 (DE3), pET15b, purified (Ni-NTA, TEV, SEC)
# Tests used:
# E. coli TatBC complex = target: T1, E. coli TatBC complex; experiment: cryo-EM structure; purified MdoD (SUMO removed) mixed with purified E. coli Tat complex in 0.02% GDN overnight at 4°C, SEC; core region 2.4 Å (C3), focused refinement on MdoD 2.1 Å (C2); settings: both partners purified
# [1] = target: the molecule itself; experiment: as above
# [2] = target: T2, E. coli TatC with a C-terminal strep …; experiment: quantification of Coomassie stained SDS-PAGE bands of the purified complexes; purified E. coli TatABC and TatBC loaded at 4 dilutions; bands quantified with ImageJ; three independent samples; settings: both partners purified
# [3] = target: the molecule itself; experiment: cryo-EM structure; E. coli TatBC complex purified in GDN; single particle, C3 symmetry, 3.1 Å
# [4] = target: the molecule itself; experiment: cryo-EM structure; N. salsuginis TatBC complex purified in GDN; single particle, C3 symmetry
# [5] = target: the molecule itself; experiment: cryo-EM structure; M. xanthus TatBC complex purified in GDN; single particle, C3 symmetry
# [6] = target: the molecule itself; experiment: crystal structure; selenomethionine-labelled M. xanthus TatC periplasmic domain; sitting drop, 21 °C; data to 2.0 Å
binder,measurement,setting,value
B1,stoichiometry N,E. coli TatBC complex,3
same,stoichiometry N,[1],2
B2,ratio of TatB to TatC in the TatABC complex relative to the TatBC complex,[2],0.78
B3,binding result,[3],binds
B4,stoichiometry N,[4],3
B5,stoichiometry N,[5],3
B6,stoichiometry N,[6],3
